Test results as given in the nanobody polyreactivity screen of Harvey et al. (2022).

Test: yeast display, Sf9 membrane polyspecificity reagent, FACS + sequencing; frameworks hold sequencing errors
Procedure, shortened: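 Using colony PCR, genes from sorted yeast display clones were amplified, then sequenced on MiSeq at 2 × 250 and filtered by CDR length. The clones had been stained with 10% biotinylated, detergent-solubilized Sf9 membrane reagent for 1 hour at 4 °C and sorted by FACS into low and high (top ~1%) gates on anti-HA and streptavidin fluorescence. Polyreactivity labels come from the gate of origin.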

Row | Sequence | polyreactivity (PSR sort gate)
1 | QVQLVESGGGLVQAGGSLRLSCAASGITFVRYAMGWYRQAPGKERELVATINWSGGSTYYADSVKGRFTISRDNAKNTVYLQMNSLKPEDTAVYYCAAYYVHPVYDVGHYDYWGQGTQVTVSS | low polyreactivity
2 | QVQLVESGGGLVQAGGSLRLTCAASGRIFIYNTMGWYRQAPGTERELVATISSGGRTYYADSVKGRFTISRDNAKNTVYFQMNSLKPEDTAVYYCNARRRYYSVWRGWDNELDYWGQGTQVTVSS | high polyreactivity
3 | QVQLVESGRGLVQAGGSLRLSCAAAGSTFVSYDLGWSRQAPGKERELLADISWSGVSTDADSVKGRFTLSRDNAKNTVYLQMNSLKPEDPAVYYCAKDSDLYQRGGYYWGQGTQVTVSS | low polyreactivity
4 | QVQLVESGGGLVQAGGSLRLSCAASGSTFIGNAMGWYRQAPGKERELVAAITSSGGSTYYADSVKGRFTISRDNAKNTVYLQLNSLKPEDTAVYYCAAKTWARGHYGYQARSNYWGQGTQVTVSS | high polyreactivity
5 | QVQLLESGGGLVQAGGSLRLSCAASGITLYRYTMGWYRQAPGKEREFVAAISRSGGSTYYADSVKGRFTLSRDNAKNTVYFQMKSLKPDDTAVYYCAAPWYEKTTRPYGSWGQGTQVTVSS | high polyreactivity
6 | QVQLVESGGGLVQAGRSLRLTCAASGRIFNPYAMGWYRQAPGKERELVAAISRGGRTYYADSVKGRFTISRDNAKNTVYLQMNSLKPEDTAVYYCNAGRGLREDDYWGQGTQVTVSS | low polyreactivity
7 | QDQLVESGGGSVQAGGSLRLSCAAYGRIYILYAMGWYRQAPGQERELVAAISWSGGSTYYADSVKGRFTISRDNAKKTVDGQRNSLKPEYTAVYYCNVVSKYKHTYDFDYWGQGTQVNVSS | high polyreactivity
8 | QVQLVESGGGLVQAGGSLRLTCAASGFTFYRYDMGWYRQAPGKERELVAAITNNGGNTYYADSVKGRFTISRDNAKNTVYLQMNSLKPDVTAVYYCATKRYYWRGYWGQGTQVSVSS | high polyreactivity
9 | QVQLVESGGGLVQAGGSLRLSCAASGFIFRYYAMGWYRQAPGKERELVAAISKRGGGTYYADSVKGRFTISRDNAKNTVYLQMNSLKPEDTAVYYCNKDGGYGTGSSREYDSWGQGTQVTVSS | high polyreactivity
10 | QVQLVESGGGLVQAGGSLRLSCAASGRIFYPYAMGWYRQAPGKERELVAAISRSGGSTYYADSVKGRFTISRDNAKNTVYLQMNSLKPEDTAVYYCAARRGFGPDGEMDYWGQGTQVTVSS | low polyreactivity
11 | QVQLQESGSGLVQAGGSLRLSCAAIGAIFPAYLMGWYRQAPGKERELVAGISYGSITYCADSVKGRFNISRDNAKNTVYLQMNSLKPEYTAVYYCAVWRPGGDEYYYWGQGTQVTVSS | low polyreactivity
12 | QVQLVESGGGLVQAGGSLRLSCASSGSTFYFNAMGWYRQAPGKERELVAAITSSGGTTYYADSVKGRFTISRDNAKNTVYLQMNSLKPEDTAVFYCADWFSAYYSLYRHRGYWGHGTQVTVSS | low polyreactivity
13 | QVQLVESGGGLVQAGGSLRLSCAASGSTLEYYAMGWYRQAPGKERELVAAISSGGSTNYADSVKGRFTISRDNAKNTVYLQMNSLKTEDTAVYYCAAERYYRFVYTCYDYWGQGTQVTVSS | high polyreactivity
14 | QVQLVESGGGLVQAGGSLRVSCAASGSIFDVYTMGWYRQAPGKERELVAAISKRSGRTYYADSVKGRFTISRDNAKNTVYLQMNSLKPEDTAVYYCAKDFGYWGQGTQVTVSS | low polyreactivity
15 | QDQHVESGGGLVQAGGSLRLSCAASGILYNYYAMGWYRQAHGKERELVAAISASGGSTYYADSVKGRFTISRDNAKNTVYLQMYSLKPEDTAVYYCNAAVLYRQYGRGDYLGQGTQVTVSS | low polyreactivity
16 | QVQLLESGGGLVQAGGSLRLSCAASGRIFGSNAMGWYRQAPGKERELVAAITRGGSTNYADSVKGRFTISRDNAKNTVYLQMNSLKPEDTAVYYCAAVPFGEVDYWGQGTQVTVSS | high polyreactivity
17 | QVQLVESGGGLVQAGGSLRLSCAASGRIFGHYAMGWYRQAPGKERELVASISSNGGSTYYADSVKGRFTISRDNAKNTVYLQINSLKPEDTAVYYCAARVSTVFKRYYYWGQGTQVTVSS | high polyreactivity
18 | QVQLVESGGGLVQAGGSLRISCAASGFIFWIYAMGWYRQAPGKEREFVAVITYRGDTTYYADSVKGRFTISRDNAKNTVYLQMNSLKPEDTAVYYCAAYTVQKYGYWGQGTQVTVSS | low polyreactivity
19 | QVQLVESGRGLVQAGASLRLSCAASGSTFYVNAMGWYRQAPGKERELVAAITSTGTTHYADSVKGRFTISRDNAKNTVYLQMNSLKPEDTAVYYCAAYSRYQSRRYYYWGQGTQVTVSS | high polyreactivity
20 | QVQLVESGGGLVQAGGSLSLSCAASGYIFVPYAMGWYRQAPGKERELVAAISWSTGTTYYADSVKGRFTISRDNAKNTVYLQMNSLKPEDTAVYYCAAEGYDWIYLYYGLGYWGQGTQVTVSS | low polyreactivity
21 | QVQLVESGGGLVQAGGSLRLSFAASEGWYRQAPGKERELVAAISYIGGSTYYADSEKGRFTISRDNAKNTVYLQMNRLKPEDTAVYYCAKGYPDPKWGGVLAYDYWGQGTQVTVSS | low polyreactivity
22 | QVQLVESGGGLVQAGGSLRLSCAASGITFNDNAMGWYRQAPGKERELVAAINSGTGTYYADSVKGRFTISRDNAKNTVYLQMNSLKPEDTAVYYCAADSRPYLRDYWGQGTQVTVSS | low polyreactivity

Row | Sequence | polyreactivity (PSR sort gate)
23 | QVQLVESGGGLVQAGGSLRLSCAASGRTFGLYAMGWYRQAPGKERELVAAIDQSTGSTYYADSVKGRFTISRDNAKNTVYLQMNSLKPEDTAVYYCAAEEASTVRYYWYDYWGQVTQVTVSS | high polyreactivity
24 | QVQLVESGGGLVQAGGSLRKSCAASRGILETNAIGWYRQAPGKERELVAAIDFSAGSTYYADSVKGRFTISRDNAKNTVYLQMNSLKPEDTAVYYCATRLGVLYDYWGHGTQVTVSS | low polyreactivity
25 | QVQLVESGGGLVQAGGSLRLSCAASGSTFLRYAMGWYRQAPGKERELVAGIRYSGGTYYADSVKGRFTISRDNAKNTVYLQMNSLKPEDTAVYYCAAYWKLGGFRYGYWGQGTQVTVSS | high polyreactivity
26 | QVQLVESGGGLVQAGGSLRLSCAASGRTFVRNAMGWYRQAPGKERELVAAISVDGSSTYYADSVKGRFTISRDNAKNTVYLQMNSLKPEDTAVYYCNADWDYRDFYDITYDYWGQGTQVTVSS | low polyreactivity
27 | QVQLVESGGGLVQAGGSLRLSCAASGFTFAVYAMGWYRQAPGKERELVAAISRSGTRTYYADSVKGRFTISRDNAKNTVFLQMNSLKPEDTAVYYCAADKYRHGYDYWGQGTQVTVSS | low polyreactivity
28 | QVQLVESGGGLVQAGGSLRLSCAASGFILLDNGMGWYREAPGKERELVAAITYSGDTTYYADSVKGRFTISRDNAKNTVYLQMNSLKPEDTAVYYCNADNDKWTTGHDYWGQGTQVTVSS | low polyreactivity
29 | QVQLVETGGGLVQAGGSLRLSCAPSGINFTGYDMGWYRQAPGKERELVAAITSGGSTYYADSVKGRFTISRDNAKNTVYLQMNSLKPEDTAVYYCAARAKLTGYWGQGTQVTVSS | high polyreactivity
30 | QLQLVESGGGLVQAGGILRLSCAASGLIFAEYAMGWYRQAPAKERELVARITSGGSTDYADSVKGRFTISRDNAKNTVYLQMNSLKPEDTAVYYCAARYYSQDKNASTASDFDYWGQGTQVTVSS | low polyreactivity
31 | QVQLVESGGGLVQAGGSLRLSCAASGILLFNAMGWYRQAPGKERELVAPINSGGSTNYADSVKGRFTISRDNAKNTVYLQMKSLKPDDTAVYYCGKDTPFTLRVWAEGGMDYWGEGTQVTVSS | low polyreactivity
32 | QVQLVESGGGLVQAGGSLRLSCAASGRSFWKYAMGWCRQAPGKERELVAAITSDGSTYYADSVKGRFTISRDNAKNTVYFQMNSLKPEDTADYYCAAQQWFEYDYWGQGTQVTVSS | low polyreactivity
33 | QVQLVESGGGLVQAGGSLRLSCASSGFIFAYNAMGWYRQAPGKERELVAAISRSGGSTRYADSVKGRFTISRDNAKNTVYLQMNSLIPEDTAVYYCAADWSDYWDWSWYDYWGQGTQVTVSS | high polyreactivity
34 | QVQLVESRGGIVQAGGSLRLSCAASGSIFTGNAMGWYRQAPGKERELVAAITSSAGSTYYADSVKGRFTISRDNAQYTVYLQMNSLKPEDTAVYYCAKDYYSKHFPNYDYWGQGTQVTVSS | low polyreactivity
35 | QVQLEESGGGLVQAGGSLRLSCAASGSIFDLNAMGWYRQAPGKERELVAANSSGGGTYYADSVKGRFTISRDNAKNTVYLQMNSLKPEDTAVYYCAAVGYKGYGYDYWGQGTQVTVSS | high polyreactivity
36 | QVQLVESGGGLVQAGGSLRLSCAASGSIFPYYAMGWYRQAPGKERDLVAAISWSGTSTYYADSLKGRFTISRDNAKNTVYLQMNSLNPEDTAVYYCAASGVGTNHYGYWNESDYWGQGTQVTVSS | low polyreactivity
37 | QVQLVESGGGLVQAGGSLRLSCAASGSTFRRYAMGWYRQAPGKERELVAAITSTDVNTYYADSVKGRFTISRDNAKNTVYFQMNSLKPEDTAVYYCAAVYLGYYGVSDMEYWGQGTQVTVSS | high polyreactivity
38 | QVQLVASGGGLVHAGASLRLSCAASGRIFTGNVMGWYRQAHWKERELVAAISVSGGRTYYADSVKGRFTISRDYAKNTVYLQMNSLKPVDSAVYYCNARYSRVWYGGDYWGQGTQVTVSS | high polyreactivity
39 | QVQLVESGGGLVQAGGSLRLSCAASGSIFFTYTMGWYRQAPGKERELVAAISASGGSTYYADSVKGRFTISRDNAKNTVYLQMNSLKPEDTAVYYCNARRRTSFIMYYWGQGTQVTVSS | high polyreactivity
40 | QVQLLESGGGLVQAGGSLRLSCAASGRIFVYYAMGLYRKAPGKERELVATITFGGGSTYYADSVKGRFTISRDNAKNNVYLQMNSLKQEDTAVYYCNAPGFAWYTTKYDYCGQGTQVTVSS | low polyreactivity
41 | QVQLVESGGGLVQAGGSLRLSCAASGRIFYSNAIGWYRQAPGKERELVAAIRDSAGSTRYADSVKGRFTISRDNAKNTVYLQMNSLKPVDTAVYYCNKDYVSIYFEYLDDYWGQGTQVTVSS | low polyreactivity
42 | QVQLVESGGGFVQAGGSLRLRCAASGRTFGWYAMGWYRQAPGKERELVAAITWRGGSTYYADSVKGRFTISRDNAKNTVYLQMNSLKPEDTAVYYCAAAAEKRSYYWGQGTQVTVSS | high polyreactivity
43 | QVHLVESGGGLVQAGGSLRLSCAASGSIFSYYAMGWYRQAPGKERELVAAISQSGGSTYYADSVKGRFTISRDNAKNTVYLQMNSLKPEDTAVNYCNAGRGTFKRYTALQYWGQGTQVTVSS | low polyreactivity
